Target: Epidermal growth factor receptor of HCT-116 cells (human (HCT-116, a human colon cancer cell line)) (UniProt P00533)
Assay: cell-based or functional assay

EGF-R Tyr-K activity in HCT-116 cells (reduction against cells exposed to MBP alone or control cells): 80 to 90%
Substance: ERRP fusion protein bound to MBP (from UniProt Q01279 25-448)
